From the nanobody polyreactivity screen of Harvey et al. (2022)

Assay: yeast display, Sf9 membrane polyspecificity reagent, FACS + sequencing; frameworks hold sequencing errors
In short: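 Synthetic nanobody libraries on Saccharomyces cerevisiae BJ5465 were galactose-induced for 36–48 hours, stained 1 hour at 4 °C with 10% biotinylated, detergent-solubilized Sf9 membrane reagent and enriched on streptavidin microbeads. FACS then separated cells into low and high (top ~1%) gates by anti-HA (expression) and streptavidin (reagent binding) fluorescence. Genes were colony-PCR amplified, MiSeq 2 × 250 sequenced and CDR-length filtered. A clone's polyreactivity label is that of its gate of origin.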

QVQLVESGGGLVQAGGSLRLSCAASGSTFSPYAMGWYRQAPGKERELVAAISSSGGSTYYADSVKGRFTISRDNAKNTVYLQMNSLKPEDTAVYYCRSFTSAQTLDYWGQGTQVTVSS
polyreactivity (PSR sort gate): high polyreactivity

QVQLVESVGGLVQAGGSLRLSSAASGRILGYYAMGWYRQAPGKERELVAAISRACSTNYADSVKGRFTISRDNAKNTVYLQMNSLKPEDTAVYYCAARPYRRGYNYWGQGSQVTVSS
polyreactivity (PSR sort gate): high polyreactivity

QVQLVESGGGLVQAGGSLRLSCAASGSIFTNNAMGWYRQAPGKETELVAAISWSGGSTYYADSVKGRFTISRDNAKNTVYLQMNSLKPEDTAVYYCAARRWGGPRYKYNYWGQGTQVTVSS
polyreactivity (PSR sort gate): high polyreactivity

QVQLVDSGGGVVQEGGSLRLSCAASGIISLFNVMGWYRQAPGKERELVASITGRGGSTFYADSVKGRFTISRDNAKNTVYLQMNSLQPEESGVYYCATDTGDTYPVNGLYDYWGHGTQVTVSS
polyreactivity (PSR sort gate): low polyreactivity

QVQLVDSGGGLVQAGGSLRLSCAASGSIFYPYAMGWYRQAPGKEREFVAGITTRGGSTYYADSVKGRFTISRDNAKNTVYLQMNSLKPEDTAVYYCAAYSSVWPNFGYWGQGTQVTVSS
polyreactivity (PSR sort gate): high polyreactivity

QDQLVESGGGLVQAGGSLRLSCAASGRNFPGYVMGWYRQAPGKERELVAVITSNGGITYYADSVKGRFTISRDNAKNTVYLQMNSLKPEDTAVYYCAAYEIYYEFDSWGQGTLVTVSS
polyreactivity (PSR sort gate): low polyreactivity

QDHLVESGGGLVQAGGSLSLSCAASGIIFYGNAMGLSRQAHGKDRELVAAISWSGSSTYYADSVKGRFTISRDNAKNTVYLQMNSLKPEDNAVYYCNKATSSVRYLKYYYWGQGTQVTVSS
polyreactivity (PSR sort gate): high polyreactivity

QVQLVESGGGLVQAGGSLRLSCAASGFTFTSYTMGWYRQAPGKERELVAVISWSGGGTYYADSVKGRFTISRDNAKNTVYLQMNSLKPEDTAVYYCNKAPTNLFGGRYDYWGQGTQVTVSS
polyreactivity (PSR sort gate): low polyreactivity

QVQLVESGGGLVQAGGSLRLSCAASGSIFIRNAMGWYRQAPGKERELVAAISTIGGRTYYADSVKGRFTISRDNAKNTVYLQMNSLNPEDTAVYYCAAEQGTPSTNWYDYWGQGTQVTVSS
polyreactivity (PSR sort gate): low polyreactivity

QVQLVDSGGGLVQAGGTLRLSCAASGRTIYRNDMGWYRQAPGQERELVAAITSSGGTTYADSVKGRFTISRDNAKNTGYLQMNSLKPEDTAVYYCAAVYAYPNIYDYWGQGTQVTVSS
polyreactivity (PSR sort gate): low polyreactivity

QVQLVESGGGLVQAGGSLRLSCAASGFIFRVNAMGWYRPAPGKERELVAAITKSGGSTYYADSVKGRFTISRDNAKNTVYLQMNSLKPEDTAVYYCNVVWYEGYGHWGQGTQVTVSS
polyreactivity (PSR sort gate): low polyreactivity

QVQLVESGGGLVQAGGSLSLSCAASGSISDVYAMGGYRQAPGKERELVAAITSGASTYYADSVKGRFTISRDNAKNTVYLQMNSLKPEDTAVYYCAAGYSDWYYAAYNSWGQGTQVTVST
polyreactivity (PSR sort gate): low polyreactivity

QVQLVESGGGLVQAGGSLRLSCAASGSTFWHYAMGWYRQAPGKERELVASISGRGTSTYYADSVKGRFTLSRDNAKNTVYLQMNSLKPEDTAVYYCAATKWYRAFDYWGQGTQVTVSS
polyreactivity (PSR sort gate): low polyreactivity

QVQLVESGGGLVQAGGSLRLSCAASGSIFSRYAMGWYRQAPGNERELVAAITSGGSTKYADSVKGRFTISRDNAKNTVYLQMNSLKPEDTAVYYCNADRRFRKYPFGYWGQGTQVTVSS
polyreactivity (PSR sort gate): high polyreactivity

QVQLVESGGGLVQAGGSLRLSCAASGRTFPGNAMGWYRQAPGKERELVAAIRWRGGSTYYADSVKGRFTISRDNAKNTVYLQMNSLKPEDTAVYYCATRALGHFDWGQGTQVTVSS
polyreactivity (PSR sort gate): low polyreactivity

QVQLVESGGGLVQEGGSLRLSCAASGITFSVYTMGRYRQAPGKERELVASITRTGGSTYYADSVKGRFTISRDNAKNTVYLQMNSLNPEDTAVYYCAARRTVVTGRYYWGQGTQVTVSS
polyreactivity (PSR sort gate): high polyreactivity

QVQLGESGGGLVQAGGSLRLSCAASGSIFVPYAMGWYRQAPGKERELVAVITSGGSTYYADSVKGRFTISRDNAKNTVYLQMNSLKPEDTAVYYCYADLYYVWSTLSQFDYWGQGTQVTVSS
polyreactivity (PSR sort gate): low polyreactivity

QVQLVESGRGLVQAGGSLRISCAASGFTFRKYTMGWNRQAPGKERELVAAISRRGGSTYYADSVKSRFTISRDNAKNTVYLQMNSLKPEVTAVYYCATDHIPSVGVDYWGQGTQVTVSS
polyreactivity (PSR sort gate): high polyreactivity

QVQLVESGGGLVQAGGSLRLSCAASGSIYTNAMGRYRQAPGKERELVAAISWSGGRTYYADSVKGRFTISRDNAKNTVYLQMNILKPEDTAVYYCNTRGTRIASGHYYWGQGNQVTVSS
polyreactivity (PSR sort gate): high polyreactivity

QVQLVESGGGLVQAGGSLRLSCAASGSIFSYYVMGWYRQAPGTERELVAAISYSGGRTYYADSVKGRFTISRDNAKNTVYLQMNSLKPEDTAVYYCAASRRVGEVSYYYWGQGTQVTVSS
polyreactivity (PSR sort gate): high polyreactivity

QVQLVESGGGLVQAGCSLRLSWAASGRIIKYNAMGWYRQAPGKERELVAVITSGGSTYYAYSVKGRFTISRDNAKNTVYLQMNSLKPEDTAVYYCAAGFGDGPGNGYYSRYSWDDDYWGQGTQVTVSS
polyreactivity (PSR sort gate): low polyreactivity

QVQLVESGGGLVQAGGSLRLSCAASGSTFLTYAMGWYRQAPGKERELVASISRSGSTNYADSVKGRFTISRDNAKNTVYLQLNSLKPEDTAVYYCAADHTRYSSSWYYKQYYYWGQGTQVTVSS
polyreactivity (PSR sort gate): low polyreactivity

QFQLVESGGGLVQAGGSLRLSCAASGRTYRYTMGWSRHAPGKERELVAAISRSGGSTYYADSVKGRFTISRDNAKTTVYLQMNSLIPEDTAVYYCAKVIYRYNETYDYWGQGTQVTVSS
polyreactivity (PSR sort gate): high polyreactivity

QVQLVESGGGLVQAGGSLRLSCAASGSIFWSYAMGWYRQAPGKERELVADSVKGRFTISRDNAKNTVYLQMNSLKPEDTAVYYCAADSPSAPVYLYDYWGQGTQVTVSS
polyreactivity (PSR sort gate): low polyreactivity

QVQLVESGGGLVQAGGSLRLSCAASGFTFGSNTMGWYRQAPGKERELVAVITWSGGSTYYADSVKGRFTISRDYAKNTVYLQMNSLKPEDTAVYSCAAEATSPLTWFDYWGQGTQVTVSS
polyreactivity (PSR sort gate): low polyreactivity

QVQLEESCGGLVQAGGSLRLSCAASGRTFRYYPMGWYRQAPGKERELVAAITTGSSTYYADSVKGRFTISRDNANNTVYLQMNSLKPEDTAVFYCNVFQGTRYGYWGQGTQVTVSS
polyreactivity (PSR sort gate): low polyreactivity

QVQLVESGGGLVQAGGSLRLSCAASGSTIRSYAMGWYRQATRKERELVARIAYSSGRTYYADSVKGRFTISRDNAKNTVYLQMNSLKPEDTAVYYCAVRGYGYGYDYWGQGTQVTVSS
polyreactivity (PSR sort gate): high polyreactivity

QVQLVESGGGLVQVGGSLRLSCAASGFTFLGYAMGWYRQAPGKEREMVAAITTGGGSTYYAVSVKGRFTISRDNATTTVYLQMNSLKPEDTAVYYCAARRNVRPRYGYWGQGTQVTVSS
polyreactivity (PSR sort gate): high polyreactivity

QVHLVESGGGLVQAGGSLRLSCAASGRIFTRNAMVWYRQAPGKERELVAAISHSGGSTYADSVKGRFTISRDNAKNTVYLQMNSLKPEDTAVYYCAAKYYFEWNSALDYWGQGTQVTVSS
polyreactivity (PSR sort gate): low polyreactivity

QVQLVESGGGLVQAGGSLRLSCAASVLIFDGYAMGWYRQAPGKEREFVADIDFGGGSTYYADSVKGRFTISRDNAKNTVYLQMNSLKPEDTAVYYCNAVWDDYGFYSPYVVVEYDYWGQGTQVTVSS
polyreactivity (PSR sort gate): high polyreactivity

QVQLVESGGGLVQAGGSLRLSCAASGYTFGYYAMGWYRQAPGKERELVAAISYSGGNTYYADSVKGRFTISRDNAKNTVYLQMNSLKPEDTAVYYCNKRYWVRTGKVSSYAYWGQGTQVTVSS
polyreactivity (PSR sort gate): high polyreactivity

HVQLVESGGGLVQAGGSLRLSCAASGRIFSVYAMGWYRQAPGKEWEFVAAITTNGGSTYYADSVKGRFTISRDNAKNTVYLQMNSLKPEDTAVYYCAAYRSRVNGYRVDYWGQGTQVTVSS
polyreactivity (PSR sort gate): high polyreactivity

QVQLVESAGGLVQAGGSLRLSCAASGITYDHYAMGWYRQAPGKERELVARITGTGDSTYYADSVKGRFTISRDNAKNTVYLQMNSLKPEDTAVYYCAAVSYRQYYGWGNYWGLGTQVTVSS
polyreactivity (PSR sort gate): low polyreactivity

QVQLVESGGGLVQAGGSLRLSCAASGRIFYAYAMGWYRQAPGKERELVAAISSSGRTYYADSVKGRFTISRDNAKNTVYLQMNSLKPEDTAVYYCAAPGSPYGYWGQGTQVTVSS
polyreactivity (PSR sort gate): high polyreactivity

QVQLVESGGGLVQAGGSLRLSCAASGRIFSVYTMGLYRQAPGKERELGAAISSGGRTYYADSVKGRFTISRDNAKNTVYLQMNSLKPEDTAVYYCAAGSHYAFYYWGQGTQVTVSS
polyreactivity (PSR sort gate): high polyreactivity

QVQLVESGGGLVQAGGSLRLSCAASGRIFWQNAKGWYRQAPGKERELVAAISSRGGTTYYADSVKGRFTISRDNAKNTVYLQMNRLKPEDTAVYYCNAALLLRYRGFFTVAAYDYWGQGTQVTVSS
polyreactivity (PSR sort gate): low polyreactivity

QVQLVESGGGLVQAGGSLRLSCAASGFTFGSYAMGWYRQAPGKERELVAAISGRGGSTYYADSVKGRFTISRDNAKNTVYLQMNSLKPEDTAVYYCATDYSRTFDYWGQGTQVTVSS
polyreactivity (PSR sort gate): high polyreactivity

QVQLVESGGVLVQAGGSLRLSCAASGRTSFYYGVGWSRQAPGKERELVAGINYGGGSTYYADSVKGRFSISRDTAKNTVYLQMNSLKPEDTAVYYCAAYRRTLGDYWGQGTQVTVSS
polyreactivity (PSR sort gate): low polyreactivity

QVQLVESGGGLVQAVGSLRLSCAASGLTFYSNAMGWYRQPHGKERELVATISQDGGRTYADSVKGRFTISRDNAKNTVYLQMNSLKPEDTAVYYCAADYSGNYDFGYWGQGTQVTVSS
polyreactivity (PSR sort gate): low polyreactivity

QVQLVESGGGLVQAGGSLRLSCAASGGTFQDYGMGWYRQAPGKERELVAAITWSGGSTYYADSVKGRFTISRDNAKNTVYLQMNSLKPEDTAVYYCAAVYADVYLYLTAYDYWGQGTQVTVSS
polyreactivity (PSR sort gate): low polyreactivity

QVQSVESAGVLVQAGGSLRLSCAASGFTFTWYAMGWYRKAPGKERELVATISRSGGRTYYADSVKGRFTISRDNAKNTVYLQMNSLKPEDTAVYYCAADTRNSPRYDYWGQGTQVTVSS
polyreactivity (PSR sort gate): high polyreactivity

QVQLVESGGALVQAGGSLRLSCAASGRTLESNAMGWYRQTPGKERELVAAISTIGGTYYADSVKGRFTLSRDNAKNTVYLQMNSLKPEDTAVYYCAKVWYDHSYIPIYDSWGQGTQVTVSS
polyreactivity (PSR sort gate): low polyreactivity

QVQLVESGGGLVQAGGSLRLSCAASGSTFYSNAMGWYRQAPGKERELVAGIDTSDGSTNYADSVKGRFTISRDHAMNTVYLQMNSLKPEDTAVYYCAADYTQPGFVSYDYWGQGSQVTVSS
polyreactivity (PSR sort gate): low polyreactivity
